{
  "source": "patent US20100216853",
  "key": {"H4-12(K5A/K12A) peptide": {"target": "T1, H4-12(K5A/K12A) peptide", "T1 chain": "RGAGGKGLGAGA"}, "H4-12(K5X/K12A) peptide": {"target": "T2, H4-12(K5X/K12A) peptide", "T2 chain": "RGXGGKGLGAGA"}, "H4-15(K5D/K12D) peptide": {"target": "T3, H4-15(K5D/K12D) peptide", "T3 chain": "GRGDGGKGLGDGGAK"}, "[1]": {"target": "T4, H4-15 histone H4 tail peptide", "T4 chain": "GRGKGGKGLGKGGAK"}},
  "data": [
    {"protein": "semi-synthetic p300 HAT domain, wild-type (protein) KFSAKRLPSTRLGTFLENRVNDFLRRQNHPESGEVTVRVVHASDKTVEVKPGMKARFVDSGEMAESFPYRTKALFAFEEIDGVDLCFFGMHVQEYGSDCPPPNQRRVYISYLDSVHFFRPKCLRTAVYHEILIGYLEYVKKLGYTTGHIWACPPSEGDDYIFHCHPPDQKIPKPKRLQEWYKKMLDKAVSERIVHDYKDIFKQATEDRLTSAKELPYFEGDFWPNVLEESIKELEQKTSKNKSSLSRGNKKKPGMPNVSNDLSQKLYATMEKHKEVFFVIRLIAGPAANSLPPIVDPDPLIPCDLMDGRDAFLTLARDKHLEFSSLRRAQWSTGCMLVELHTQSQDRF", "values": [
      {"measurement": "Km", "setting": "H4-12(K5A/K12A) peptide", "value": "Km of these substrates were generally too high to be measured (>1000 µM)"},
      {"measurement": "V/K(M^-1s^-1) for W.T.", "setting": "H4-12(K5A/K12A) peptide", "value": 3820, "unit": "M⁻¹ s⁻¹"},
      {"measurement": "Km", "setting": "H4-12(K5X/K12A) peptide", "value": "Km of these substrates were generally too high to be measured (>1000 µM)"},
      {"measurement": "V/K(M^-1s^-1) for W.T.", "setting": "H4-12(K5X/K12A) peptide", "value": 5250, "unit": "M⁻¹ s⁻¹"},
      {"measurement": "Km", "setting": "H4-15(K5D/K12D) peptide", "value": "Km of these substrates were generally too high to be measured (>1000 µM)"},
      {"measurement": "V/K(M^-1s^-1) for W.T.", "setting": "H4-15(K5D/K12D) peptide", "value": 636, "unit": "M⁻¹ s⁻¹"},
      {"measurement": "Km(µM) for H4-15", "setting": "[1]", "value": 164, "unit": "µM"},
      {"measurement": "V/K", "setting": "[1]", "value": "25000 ± 1640", "unit": "M⁻¹ s⁻¹"},
      {"measurement": "V/K(M^-1s^-1) for W.T.", "setting": "[1]", "value": 25000, "unit": "M⁻¹ s⁻¹"}
    ]}
  ]
}
